Experimental data published in patent publication US5879896A, “Method of screening for inhibitors of human thyrotropin releasing hormone (TRH) receptor” (Takeda Chemical Industries, Ltd., priority 1993, dated 1999).
Read-outs that look alike come from different tables or passages of the source. Square brackets hold non-standard residues; d marks the D form. Ends that are not written are not given here. Peptide text beside a SMILES is read from it. Blc = γ-butyrolactone-γ-carbonyl group; pGlu = O=C1CC[C@@H](C(=O)O)N1; ΔPro = O=C(O)[C@@H]1C=CCN1; Nva = CCC[C@H](N)C(=O)O; His(3-Me) = 3-Me-His

How the values were obtained:
human TRH receptor = target: T1, human TRH receptor (Homo sapiens, UniProt P34981); assay: Antagonism of [3H]TRH binding in CHO dhfr- cells transformed with human TRH receptor DNA (Examples 5 and 6); set-up: translation frame (open reading frame) of the human TRH receptor was constructed on pUC118; expressed in transfected cells; host or cells: CHO dhfr- cells (plasmid pAKKO1.11 with the human TRH receptor open reading frame); settings: for inhibition at 10 µM / inhibition at 100 µM / inhibition at 1000 µM: 1 h; for Antagonistic binding activity to the human TRH receptor, in words: benzodiazepine compounds, 10 μM to 1 mM; for Antagonistic Rate (%) at Each Concentration (-log M): 60 min
T1 sequence (P34981 1-398): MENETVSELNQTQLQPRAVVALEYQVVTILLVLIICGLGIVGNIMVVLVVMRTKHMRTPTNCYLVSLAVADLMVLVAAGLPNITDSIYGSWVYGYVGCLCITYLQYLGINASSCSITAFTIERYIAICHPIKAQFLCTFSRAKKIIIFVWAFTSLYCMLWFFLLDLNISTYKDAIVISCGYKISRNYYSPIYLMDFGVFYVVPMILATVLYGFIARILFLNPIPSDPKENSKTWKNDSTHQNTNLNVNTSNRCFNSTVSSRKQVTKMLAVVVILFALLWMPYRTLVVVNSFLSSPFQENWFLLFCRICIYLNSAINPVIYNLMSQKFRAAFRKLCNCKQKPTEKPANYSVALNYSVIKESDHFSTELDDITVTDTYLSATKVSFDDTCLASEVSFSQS

CHO dhfr- cells = assay: [3H]TRH binding to CHO dhfr- cell line into which no human TRH receptor DNA was introduced (Example 4); set-up: species or system Chinese hamster; settings: no human TRH receptor DNA introduced (FIG. 9)
Experimental: This plasmid was cleaved with SalI and ClaI. The plasmid obtained in Example 3 in which the translation frame (open reading frame) of the human TRH receptor was constructed on pUC118 was cleaved with HindIII, and repaired with a Klenow fragment, followed by addition of an SalI linker. The resulting fragment was further cleaved with SmaI, and a fragment containing the translation frame (open reading frame) of the human TRH receptor and a ClaI linker were added thereto. This was cleaved with SalI and ClaI, and thereafter, the plasmid DNA previously cleaved with SalI and ClaI was bound thereto to complete an expression plasmid. This plasmid DNA was purified by cesium chloride equilibrium density gradient centrifugation, and partially introduced into the CHO dhfr^- cell line with a gene introduction kit (CellPhect, Pharmacia) by the calcium phosphate precipitation method. The original CHO dhfr^- cell line is impossible to grow in a medium not containing a nucleoside and a nucleotide, because of lack of dhfr phenotype. […] The cells were dissolved in 500 μl of 1% SDS and 0.2N NaOH, and the radioactivity contained therein was measured by use of liquid scintillator A. In order to know the non-specific binding, a group was also prepared to which non-labeled TRH was added to a final concentration of 10 μM in addition to [^3 H] […]

[1] = target: T2, human TRH receptor protein (human); assay: competition with 10 nM 3H-TRH, CHO cells expressing human TRH receptor; compound at 10^-5 M
T2 chain: T1 sequence (P34981 1-398)

[2] = target: T2, human TRH receptor protein; assay: competition with 10 nM 3H-TRH, CHO cells expressing human TRH receptor; compound at 10^-6 M
Experimental: (§1) In Table 2, the degree of a reduction in the binding of [^3H] TRH in the case where the TRH analogous compound having respective concentrations was added to the total binding of [^3H] TRH in the case where no TRH analogous compound existed was indicated as percentage. The specific activity of [^3H] TRH used in the experiment was 83.04 Ci/mmol, and this was added to give a concentration of 10 nM in the reaction solution. For the compounds indicated by (*1) in the table, the specific activity of [^3H] TRH was 45 Ci/mmol, and this was added to give a concentration of 18.3 nM in the reaction solution.

[3] = target: T2, human TRH receptor protein; assay: competition with 10 nM 3H-TRH, CHO cells expressing human TRH receptor; compound at 10^-7 M
Experimental: as §1

[4] = target: T2, human TRH receptor protein; assay: competition with 10 nM 3H-TRH, CHO cells expressing human TRH receptor; compound at 10^-8 M
[5] = target: T2, human TRH receptor protein; assay: competition with 10 nM 3H-TRH, CHO cells expressing human TRH receptor; compound at 10^-9 M
[6] = target: T2, human TRH receptor protein; assay: competition with 10 nM 3H-TRH, CHO cells expressing human TRH receptor; compound at 10^-10 M
Experimental: as §1

[7] = target: T2, human TRH receptor protein; assay: competition with 10 nM 3H-TRH, CHO cells expressing human TRH receptor; compound at 10^-11 M
Experimental: as §1

[8] = target: T2, human TRH receptor protein; assay: competition with 10 nM 3H-TRH, CHO cells expressing human TRH receptor; compound at 10^-12 M
Experimental: as §1

[9] = target: T2, human TRH receptor protein; assay: competition with 18.3 nM 3H-TRH, CHO cells expressing human TRH receptor; compound at 10^-5 M
Experimental: as §1

[10] = target: T2, human TRH receptor protein; assay: competition with 18.3 nM 3H-TRH, CHO cells expressing human TRH receptor; compound at 10^-6 M
Experimental: as §1

[11] = target: T2, human TRH receptor protein; assay: competition with 18.3 nM 3H-TRH, CHO cells expressing human TRH receptor; compound at 10^-7 M
Experimental: as §1

[12] = target: T2, human TRH receptor protein; assay: competition with 18.3 nM 3H-TRH, CHO cells expressing human TRH receptor; compound at 10^-8 M
Experimental: as §1

[13] = target: T2, human TRH receptor protein; assay: competition with 18.3 nM 3H-TRH, CHO cells expressing human TRH receptor; compound at 10^-9 M
Experimental: as §1

[14] = target: T2, human TRH receptor protein; assay: competition with 18.3 nM 3H-TRH, CHO cells expressing human TRH receptor; compound at 10^-10 M
Experimental: as §1

[15] = target: T2, human TRH receptor protein; assay: competition with 10 nM 3H-TRH, CHO cells expressing human TRH receptor; compound at 10^-4 M
[16] = read-out: Antagonistic activity (TABLE 1; percentage to that of the control)
[17] = -log M = 4, 10 nM [3H]TRH, read-out: Antagonistic Rate (%) at Each Concentration (-log M)
[18] = -log M = 5, 10 nM [3H]TRH, read-out: Antagonistic Rate (%) at Each Concentration (-log M)

Molecule: CNC1=Nc2ccc(Cl)cc2C(c2ccccc2)=[N+]([O-])C1 [Chlordiazepoxide, chlordiazepoxide]
- inhibition at 10 µM (human TRH receptor; [16]): -2.2%
- inhibition at 100 µM (human TRH receptor; [16]): 7.1%
- inhibition at 1000 µM (human TRH receptor; [16]): 46.8%
- Antagonistic binding activity to the human TRH receptor, in words (human TRH receptor): antagonistic activity increased in order of midazolam, chlordiazepoxide and oxazepam

Molecule: O=C1N[C@@H](Cc2c[nH]cn2)C(=O)N2CCC[C@@H]12 [Compound 2, Cyclo(His--Pro) His Pro-Diketopiperazine]
- inhibition at 100 µM (human TRH receptor; [17]): -1.1%
- inhibition at 10 µM (human TRH receptor; [18]): 0.6%

Molecule: NC(=O)[C@@H]1CCCN1C(=O)[C@H](Cc1ccccc1)NC(=O)[C@@H]1CCC(=O)N1 [Compound 14, pGlu Phe Pro NH2] ([pGlu]-Phe-Pro-NH2)
- inhibition at 100 µM (human TRH receptor; [17]): 96.2%
- inhibition at 10 µM (human TRH receptor; [18]): 74.2%

Molecule: CCC[C@H](NC(=O)[C@@H]1CCC(=O)N1)C(=O)N1CCC[C@H]1C(N)=O [Compound 15, pGlu NVal Pro NH2] ([pGlu]-[Nva]-Pro-NH2)
- inhibition at 100 µM (human TRH receptor; [17]): 78.6%
- inhibition at 10 µM (human TRH receptor; [18]): 33.4%

Molecule: CN1C(=O)CN=C(c2ccccc2F)c2cc([N+](=O)[O-])ccc21 [Flunitrazepam, flunitrazepam]
- inhibition at 10 µM (human TRH receptor; [16]): -0.5%
- inhibition at 100 µM (human TRH receptor; [16]): -4%
- inhibition at 1000 µM (human TRH receptor; [16]): -13.7%
- Antagonistic binding activity to the human TRH receptor, in words (human TRH receptor): no antagonistic binding was observed at all

Molecule: Cc1ncc2n1-c1ccc(Cl)cc1C(c1ccccc1F)=NC2 [Midazolam, midazolam]
- inhibition at 10 µM (human TRH receptor; [16]): 2.6%
- inhibition at 100 µM (human TRH receptor; [16]): 12%
- inhibition at 1000 µM (human TRH receptor; [16]): 69.7%
- Antagonistic binding activity to the human TRH receptor, in words (human TRH receptor): antagonistic activity increased in order of midazolam, chlordiazepoxide and oxazepam

Molecule: [L-proline-2,3,4,5-^3 H(N)]-(Pyro)Glu-His-Pro-NH2 [[^3 H] TRH]
- Specific binding, in words (CHO dhfr- cells): no specific binding was detected at all

Molecule: pGlu His Pro Gly Lys ([pGlu]HPGK) [Compound 3]
- Antagonistic Rate (%) at Each Concentration (-log M) (human TRH receptor; -log M = 5, 10 nM [3H]TRH): 31.9%
- Antagonistic Rate (%) at Each Concentration (-log M) (human TRH receptor; -log M = 6, 10 nM [3H]TRH, 1 µM): -0.6%

Molecule: [pGlu]-His-Pro-NH2 [TRH (pGlu His Pro NH2)]
- Antagonistic Rate (%) [1]: 99.7%
- Antagonistic Rate (%) [2]: 98.7%
- Antagonistic Rate (%) [3]: 90.7%
- Antagonistic Rate (%) [4]: 52%
- Antagonistic Rate (%) [5]: 7.2%
- Antagonistic Rate (%) [6]: 0.3%
- Antagonistic Rate (%) [7]: 0.7%
- Antagonistic Rate (%) [8]: 0%
- Antagonistic Rate (%) [9]: 99.7%
- Antagonistic Rate (%) [10]: 97.8%
- Antagonistic Rate (%) [11]: 83.9%
- Antagonistic Rate (%) [12]: 39.8%
- Antagonistic Rate (%) [13]: 4.2%
- Antagonistic Rate (%) [14]: -0.7%

Molecule: HP (cyclic dipeptide (diketopiperazine) of His and Pro) [Cyclo(His--Pro) His Pro-Diketopiperazine]
- Antagonistic Rate (%) [15]: -1.1%
- Antagonistic Rate (%) [1]: 0.6%

Molecule: [pGlu]-His-Pro [pGLU His Pro]
- Antagonistic Rate (%) [15]: 40.8%
- Antagonistic Rate (%) [1]: 11.8%

Molecule: Blc-His-Pro [Blc His Pro]
- Antagonistic Rate (%) [15]: 0.7%
- Antagonistic Rate (%) [1]: -0.1%

Molecule: Glu-His-Pro-NH2 [Glu His Pro NH2]
- Antagonistic Rate (%) [9]: 95.3%
- Antagonistic Rate (%) [10]: 70.7%
- Antagonistic Rate (%) [11]: 19.7%
- Antagonistic Rate (%) [12]: 1.8%
- Antagonistic Rate (%) [13]: 1%
- Antagonistic Rate (%) [14]: 2%

Molecule: [pGlu]-Phe-Pro-NH2 [pGlu Phe Pro NH2]
- Antagonistic Rate (%) [15]: 96.2%
- Antagonistic Rate (%) [1]: 74.2%

Molecule: [pGlu]-[Nva]-Pro-NH2 (SMILES CCC[C@H](NC(=O)[C@@H]1CCC(=O)N1)C(=O)N1CCC[C@H]1C(N)=O) [pGlu NVal Pro NH2]
- Antagonistic Rate (%) [15]: 78.6%
- Antagonistic Rate (%) [1]: 33.4%

Molecule: [pGlu]-[His(3-Me)]-Pro-NH2 [pGlu 3-Me-His Pro NH2]
- Antagonistic Rate (%) [1]: 97.9%
- Antagonistic Rate (%) [4]: 85%
- Antagonistic Rate (%) [5]: 20%
- Antagonistic Rate (%) [6]: -4.4%
- Antagonistic Rate (%) [7]: -7.1%
- Antagonistic Rate (%) [8]: -6.5%

Molecule: [pGlu]-Glu-Pro-NH2 (SMILES NC(=O)[C@@H]1CCCN1C(=O)[C@H](CCC(=O)O)NC(=O)[C@@H]1CCC(=O)N1) [pGlu Glu Pro NH2]
- Antagonistic Rate (%) [1]: -2.9%

Molecule: [pGlu]-His-[ΔPro]-NH2 (SMILES NC(=O)[C@@H]1C=CCN1C(=O)[C@H](Cc1c[nH]cn1)NC(=O)[C@@H]1CCC(=O)N1) [pGlu His 3,4-dihydro-Pro NH2]
- Antagonistic Rate (%) [9]: 99.7%
- Antagonistic Rate (%) [10]: 98.3%
- Antagonistic Rate (%) [11]: 84.6%
- Antagonistic Rate (%) [12]: 39.1%
- Antagonistic Rate (%) [13]: 7%
- Antagonistic Rate (%) [14]: 2.2%
